Assay results as given in the supplement of paper PMC9233669.
This sample holds only a part of the variants without activity.

Columns and labels:
[1] = test system: biotinyl-Leu-oxazolone; experiment: self-aminoacylation, catalytic enhancement (BLO) (fold over background); higher = more active; k-Seq, kA / k0A0; sequences stand for … in GGGAAUGGAUCCACAUCUACGAAUUC…UUCACUGCAGACUUGACGAAGCUG
In short: (§1)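 Mutagenized RNA pools with a 21-nt variable region (0.43 μM) reacted with each biotinyl-aminoacyl-oxazolone at 2–1250 μM. Reactions ran in 50 μL HEPES/NaCl/KCl/MgCl2/CaCl2 buffer with 5% acetonitrile, pH 6.9–7.0, for 90 minutes at room temperature. Streptavidin-captured RNA was quantified by triplicate qPCR and Illumina sequencing, and per-sequence fraction reacted was fit to a pseudo-first-order model with 1000 bootstraps. Catalytic enhancement is median kA divided by the uncatalyzed rate, the low-activity peak of a bimodal Gaussian fit.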

[2] = test system: biotinyl-Val-oxazolone; experiment: self-aminoacylation, catalytic enhancement (BVO) (fold over background); higher = more active; k-Seq, kA / k0A0; sequences stand for … in GGGAAUGGAUCCACAUCUACGAAUUC…UUCACUGCAGACUUGACGAAGCUG
In short: as §1

[3] = test system: biotinyl-Met-oxazolone; experiment: self-aminoacylation, catalytic enhancement (BMO) (fold over background); higher = more active; k-Seq, kA / k0A0; sequences stand for … in GGGAAUGGAUCCACAUCUACGAAUUC…UUCACUGCAGACUUGACGAAGCUG
In short: as §1

[4] = test system: biotinyl-Trp-oxazolone; experiment: self-aminoacylation, catalytic enhancement (BWO) (fold over background); higher = more active; k-Seq, kA / k0A0; sequences stand for … in GGGAAUGGAUCCACAUCUACGAAUUC…UUCACUGCAGACUUGACGAAGCUG
In short: as §1

[5] = test system: biotinyl-Ile-oxazolone; experiment: self-aminoacylation, catalytic enhancement (BIO) (fold over background); higher = more active; k-Seq, kA / k0A0; sequences stand for … in GGGAAUGGAUCCACAUCUACGAAUUC…UUCACUGCAGACUUGACGAAGCUG
In short: as §1

[6] = test system: biotinyl-Phe-oxazolone; experiment: self-aminoacylation, catalytic enhancement (BFO) (fold over background); higher = more active; k-Seq, kA / k0A0; sequences stand for … in GGGAAUGGAUCCACAUCUACGAAUUC…UUCACUGCAGACUUGACGAAGCUG
In short: as §1

“CCAGAGUUCAAGCAAUCGGUC [Fam1B.1 aminoacylation ribozyme variant]” showed a self-aminoacylation [1] of 1.36, a self-aminoacylation [2] of 1.2 and a self-aminoacylation [3] of 1.21. The self-aminoacylation [4] was 1.72, the self-aminoacylation [5] was 1.36 and the self-aminoacylation [6] was 1.42.

Sequence “CCAGUCUUCAAGCAAUCGGUC [Fam1B.1 aminoacylation ribozyme variant]” has a self-aminoacylation [1] of 2.8, a self-aminoacylation [2] of 1.63 and a self-aminoacylation [3] of 1.79. It also gave a self-aminoacylation [4] of 38.6, a self-aminoacylation [5] of 1.67 and a self-aminoacylation [6] of 68.5.

Sequence “CCAUACUGCAAGCAAUCGGUC [Fam1B.1 aminoacylation ribozyme variant]” has a self-aminoacylation [1] of 0.996, a self-aminoacylation [2] of 1.14 and a self-aminoacylation [3] of 1.15. For the same sequence, the self-aminoacylation [4] was 0.938, the self-aminoacylation [5] was 1.14 and the self-aminoacylation [6] was 1.06.

In the case of “CCAUACUUCAAGCAAUAGGUC [Fam1B.1 aminoacylation ribozyme variant]”, the self-aminoacylation [1] is reported as 0.597, the self-aminoacylation [2] is reported as 0.633 and the self-aminoacylation [3] is reported as 0.505. For the same sequence, the self-aminoacylation [4] was 0.513, the self-aminoacylation [5] was 0.72 and the self-aminoacylation [6] was 1.03.

In the case of “CCAUACUUCAAGCAAUCGAUC [Fam1B.1 aminoacylation ribozyme variant]”, the self-aminoacylation [1] is reported as 0.489, the self-aminoacylation [2] is reported as 0.842 and the self-aminoacylation [3] is reported as 0.45. For the same sequence, the self-aminoacylation [4] was 0.638, the self-aminoacylation [5] was 0.666 and the self-aminoacylation [6] was 1.01.

In the case of “CCAUACUUCAAGCAAUCGGUA [Fam1B.1 aminoacylation ribozyme variant]”, the self-aminoacylation [1] is reported as 1.1, the self-aminoacylation [2] is reported as 1.26 and the self-aminoacylation [3] is reported as 1.22. It also gave a self-aminoacylation [4] of 1.1, a self-aminoacylation [5] of 1.33 and a self-aminoacylation [6] of 1.04.

In the case of “CCAUACUUCAAGCAAUCGGUC [Fam1B.1 aminoacylation ribozyme variant]”, the self-aminoacylation [1] is reported as 1.14, the self-aminoacylation [2] is reported as 1.11 and the self-aminoacylation [3] is reported as 0.921. For the same sequence, the self-aminoacylation [4] was 10.1, the self-aminoacylation [5] was 1.07 and the self-aminoacylation [6] was 22.5.

Sequence “CCAUACUUCAAGUAAUCGGUC [Fam1B.1 aminoacylation ribozyme variant]” has a self-aminoacylation [1] of 1.07, a self-aminoacylation [2] of 0.861 and a self-aminoacylation [3] of 0.825. It also gave a self-aminoacylation [4] of 5, a self-aminoacylation [5] of 0.914 and a self-aminoacylation [6] of 8.18.

“CCCCACUUCAAGCAAUCGAUC [Fam1B.1 aminoacylation ribozyme variant]” showed a self-aminoacylation [1] of 0.67, a self-aminoacylation [2] of 0.93 and a self-aminoacylation [3] of 0.533. The self-aminoacylation [4] was 1.27, the self-aminoacylation [5] was 0.768 and the self-aminoacylation [6] was 2.79.

With “CCCCACUUCAAGCGAUCGGUC [Fam1B.1 aminoacylation ribozyme variant]” the self-aminoacylation [1] was 1.68, the self-aminoacylation [2] was 2.02 and the self-aminoacylation [3] was 2.53. It also gave a self-aminoacylation [4] of 4.88, a self-aminoacylation [5] of 1.69 and a self-aminoacylation [6] of 5.13.

“CCGAACUUCAAGCAAUCGGUC [Fam1B.1 aminoacylation ribozyme variant]” showed a self-aminoacylation [1] of 1.68, a self-aminoacylation [2] of 1.54 and a self-aminoacylation [3] of 1.43. For the same sequence, the self-aminoacylation [4] was 20.6, the self-aminoacylation [5] was 1.26 and the self-aminoacylation [6] was 34.4.

“CCGCACUUAAAGCAAUCGGUC [Fam1B.1 aminoacylation ribozyme variant]” gave a self-aminoacylation [1] of 1.05, a self-aminoacylation [2] of 1.25 and a self-aminoacylation [3] of 1.1. For the same sequence, the self-aminoacylation [4] was 1.15, the self-aminoacylation [5] was 1.13 and the self-aminoacylation [6] was 0.932.

For “CCGCACUUCAAGCAAUGGGUC [Fam1B.1 aminoacylation ribozyme variant]”, the self-aminoacylation [1] was 1.04, the self-aminoacylation [2] was 1.21 and the self-aminoacylation [3] was 0.802. It also gave a self-aminoacylation [4] of 1.08, a self-aminoacylation [5] of 0.918 and a self-aminoacylation [6] of 1.13.

In the case of “CCGCACUUCAAGGAAUCGGUC [Fam1B.1 aminoacylation ribozyme variant]”, the self-aminoacylation [1] is reported as 1.44, the self-aminoacylation [2] is reported as 1.52 and the self-aminoacylation [3] is reported as 1.37. The self-aminoacylation [4] was 10.8, the self-aminoacylation [5] was 1.45 and the self-aminoacylation [6] was 10.7.

“CCGCACUUCAAUCAAUCGGUC [Fam1B.1 aminoacylation ribozyme variant]” gave a self-aminoacylation [1] of 2.03, a self-aminoacylation [2] of 1.62 and a self-aminoacylation [3] of 1.26. It also gave a self-aminoacylation [4] of 28.7, a self-aminoacylation [5] of 1.27 and a self-aminoacylation [6] of 39.7.

For “CCGCACUUCGAGCAAUCGGUC [Fam1B.1 aminoacylation ribozyme variant]”, the self-aminoacylation [1] was 1.46, the self-aminoacylation [2] was 2.27 and the self-aminoacylation [3] was 1.46. The self-aminoacylation [4] was 2.26, the self-aminoacylation [5] was 1.22 and the self-aminoacylation [6] was 5.29.

With “CCGCAGUUCAAGCAAUCGGUC [Fam1B.1 aminoacylation ribozyme variant]” the self-aminoacylation [1] was 1.85, the self-aminoacylation [2] was 1.82 and the self-aminoacylation [3] was 1.96. It also gave a self-aminoacylation [4] of 6.86, a self-aminoacylation [5] of 1.58 and a self-aminoacylation [6] of 5.75.

Work on “CCGCUCUUCAAGCAAUCGGUC [Fam1B.1 aminoacylation ribozyme variant]” yielded a self-aminoacylation [1] of 1.92, a self-aminoacylation [2] of 1.76 and a self-aminoacylation [3] of 1.6. For the same sequence, the self-aminoacylation [4] was 26.3, the self-aminoacylation [5] was 1.42 and the self-aminoacylation [6] was 35.5.

With “CCGUACUUCAAGCAAUCGGUC [Fam1B.1 aminoacylation ribozyme variant]” the self-aminoacylation [1] was 1.42, the self-aminoacylation [2] was 1.3 and the self-aminoacylation [3] was 1.06. The self-aminoacylation [4] was 18.4, the self-aminoacylation [5] was 1.16 and the self-aminoacylation [6] was 34.5.

Work on “CCUCACCUCAAGCAAUCGGUC [Fam1B.1 aminoacylation ribozyme variant]” yielded a self-aminoacylation [1] of 0.963, a self-aminoacylation [2] of 1.3 and a self-aminoacylation [3] of 0.79. The self-aminoacylation [4] was 2.12, the self-aminoacylation [5] was 1.02 and the self-aminoacylation [6] was 4.38.

Work on “CCUCACUUCAAACAAUCGGUC [Fam1B.1 aminoacylation ribozyme variant]” yielded a self-aminoacylation [1] of 2.35, a self-aminoacylation [2] of 1.25 and a self-aminoacylation [3] of 1.51. The self-aminoacylation [4] was 37.3, the self-aminoacylation [5] was 1.21 and the self-aminoacylation [6] was 93.7.

Sequence “CCUCACUUCAAGCAACCGGUC [Fam1B.1 aminoacylation ribozyme variant]” has a self-aminoacylation [1] of 0.806, a self-aminoacylation [2] of 0.834 and a self-aminoacylation [3] of 0.857. It also gave a self-aminoacylation [4] of 1.29, a self-aminoacylation [5] of 0.978 and a self-aminoacylation [6] of 1.67.

Work on “CCUCACUUCAAGCAAUCGGUA [Fam1B.1 aminoacylation ribozyme variant]” yielded a self-aminoacylation [1] of 1.22, a self-aminoacylation [2] of 1.11 and a self-aminoacylation [3] of 1.51. The self-aminoacylation [4] was 1.57, the self-aminoacylation [5] was 1.05 and the self-aminoacylation [6] was 1.91.

Sequence “CCUCACUUCAAGCAAUCGGUG [Fam1B.1 aminoacylation ribozyme variant]” has a self-aminoacylation [1] of 9.05, a self-aminoacylation [2] of 4.01 and a self-aminoacylation [3] of 6.58. The self-aminoacylation [4] was 6.88, the self-aminoacylation [5] was 4.12 and the self-aminoacylation [6] was 25.3.

“CCUCACUUCCAGCAAUCGGUC [Fam1B.1 aminoacylation ribozyme variant]” was tested, and the self-aminoacylation [1] was 0.861, the self-aminoacylation [2] was 1.06 and the self-aminoacylation [3] was 0.651. For the same sequence, the self-aminoacylation [4] was 0.965, the self-aminoacylation [5] was 1.05 and the self-aminoacylation [6] was 1.23.

With “CCUCACUUUAAGCAAUCGGUC [Fam1B.1 aminoacylation ribozyme variant]” the self-aminoacylation [1] was 0.619, the self-aminoacylation [2] was 0.688 and the self-aminoacylation [3] was 0.544. The self-aminoacylation [4] was 0.683, the self-aminoacylation [5] was 0.734 and the self-aminoacylation [6] was 1.2.
